Assay results: patent publication US20220411483A1 (Chugai, published 2022)

T1: human FcγRIIb extracellular domain with C-terminal His tag (human, UniProt P31994 43-217)
T1 construct: extracellular domain; also called FcgRIIb
T1 sequence (looked up): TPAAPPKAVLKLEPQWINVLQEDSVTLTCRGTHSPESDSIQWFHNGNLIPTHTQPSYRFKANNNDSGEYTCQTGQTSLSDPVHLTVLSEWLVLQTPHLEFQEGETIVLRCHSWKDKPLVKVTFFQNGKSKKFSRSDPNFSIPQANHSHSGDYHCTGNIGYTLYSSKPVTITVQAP

T2: human FcγRIIa R type extracellular domain with C-terminal His tag (human, UniProt P12318 34-217)
T2 construct: extracellular domain; also called FcgRIIaR
T2 sequence (looked up): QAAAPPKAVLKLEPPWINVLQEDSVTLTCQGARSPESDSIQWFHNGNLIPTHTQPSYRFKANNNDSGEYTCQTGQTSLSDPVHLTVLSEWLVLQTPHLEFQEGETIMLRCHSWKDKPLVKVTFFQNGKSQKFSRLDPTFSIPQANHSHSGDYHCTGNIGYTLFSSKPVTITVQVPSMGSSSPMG

T3: human FcγRIIa H type extracellular domain with C-terminal His tag (human, UniProt P12318 34-217)
T3 construct: extracellular domain; also called FcgRIIaH
T3 sequence (looked up): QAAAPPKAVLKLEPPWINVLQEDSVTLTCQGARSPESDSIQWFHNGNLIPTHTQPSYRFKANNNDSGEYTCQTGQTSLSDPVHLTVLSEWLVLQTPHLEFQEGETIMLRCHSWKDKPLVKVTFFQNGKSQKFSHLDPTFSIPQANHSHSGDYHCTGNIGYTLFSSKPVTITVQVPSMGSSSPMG


Key:
[1] = molecular target: T1, human FcγRIIb extracellular domain with …; test: SPR, antibody captured, FcgR analyte
[2] = molecular target: T2, human FcγRIIa R type extracellular …; test: SPR, antibody captured, FcgR analyte
[3] = molecular target: T4, human FcγRIa extracellular domain with C-terminal His tag (human, UniProt P12314 16-292); test: SPR, antibody captured, FcgR analyte
T4 construct: Whole entry named; also called FcgRIa

[4] = molecular target: T5, human FcγRIIIa V type extracellular domain with C-terminal His tag (human, UniProt P08637 17-208); test: SPR, KD of IL6R-G1d/IL6R-L divided by KD of variant
T5 construct: extracellular domain; also called FcgRIIIaV

[5] = molecular target: T1, human FcγRIIb extracellular domain with …; test: as above
[6] = molecular target: T3, human FcγRIIa H type extracellular …; test: as above
[7] = molecular target: T2, human FcγRIIa R type extracellular …; test: as above
[8] = molecular target: T4, human FcγRIa extracellular domain with …; test: as above

T4 sequence (P12314 16-292): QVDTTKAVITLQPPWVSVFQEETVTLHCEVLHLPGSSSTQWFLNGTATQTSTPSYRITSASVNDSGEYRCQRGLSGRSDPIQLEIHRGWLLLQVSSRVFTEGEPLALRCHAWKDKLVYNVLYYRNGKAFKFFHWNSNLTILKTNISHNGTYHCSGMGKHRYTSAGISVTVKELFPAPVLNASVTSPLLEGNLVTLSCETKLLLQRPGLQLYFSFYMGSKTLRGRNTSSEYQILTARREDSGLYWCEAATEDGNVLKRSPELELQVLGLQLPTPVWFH
T5 sequence (P08637 17-208 F176V): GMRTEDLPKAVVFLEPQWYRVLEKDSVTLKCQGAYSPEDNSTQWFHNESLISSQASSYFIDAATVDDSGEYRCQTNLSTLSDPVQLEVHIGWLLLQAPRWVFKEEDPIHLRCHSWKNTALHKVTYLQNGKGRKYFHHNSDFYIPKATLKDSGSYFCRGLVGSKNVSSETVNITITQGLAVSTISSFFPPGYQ

Binder | Kd [1] | Kd [2] | Kd [3] | Relative FcgRIIIaV-binding Activity [4] | Relative FcgRIIb-binding Activity [5] | Relative FcgRIIaH-binding Activity [6] | Relative FcgRIIaR-binding Activity [7] | Relative FcgRIa-binding Activity [8]
IL6R-P743/IL6R-L (antibody, human IgG1, kappa) heavy: QVQLQESGPGLVKPSETLSLTCAVSGHSISHDHAWSWVRQPPGEGLEWIGFISYSGITNYNPSLQGRVTISRDNSKNTLYLQMNSLRAEDTAVYYCARSLARTTAMDYWGEGTLVTVSSASTKGPSVFPLAPSSKSTSGGTAALGCLVKDYFPEPVTVSWNSGALTSGVHTFPAVLQSSGLYSLSSVVTVPSSSLGTQTYICNVNHKPSNTKVDKKVEPKSCDKTHTCPPCPAPELLGGDSVFLFPPKPKDTLMISRTPEVTCVVVDVSHEDPEVKFNWYVDGVEVHNAKTKPREEQYNSTYRVVSVLTVLHQDWLNGKEYKCKVSNKGLPSSIEKTISKAKGQPREPQVYTLPPSRDELTKNQVSLTCLVKGFYPSDIAVEWESNGQPENNYKTTPPVLDSDGSFFLYSKLTVDKSRWQQGNVFSCSVMHEALHNHYTQKSLSLSP light: not shown | 3.6 µM | 20 µM | 0.018 µM | 0.006 | 0.6 | 0.013 | 0.06 | 0.018
IL6R-P747/IL6R-L (antibody, human IgG1, kappa) heavy: QVQLQESGPGLVKPSETLSLTCAVSGHSISHDHAWSWVRQPPGEGLEWIGFISYSGITNYNPSLQGRVTISRDNSKNTLYLQMNSLRAEDTAVYYCARSLARTTAMDYWGEGTLVTVSSASTKGPSVFPLAPSSKSTSGGTAALGCLVKDYFPEPVTVSWNSGALTSGVHTFPAVLQSSGLYSLSSVVTVPSSSLGTQTYICNVNHKPSNTKVDKKVEPKSCDKTHTCPPCPAPELFGQDSVMLFPPKPKDTLMISRTPEVTCVVVDVSHEDPEVKFNWYVDGVEVHNAKTKPREEQENSTYRVVSVLTVLHQDWLNGKEYKCEVSNKALPAPIEKTISKAKGQPREPQVYTLPPSRDELTKNQVSLTCLVKGFYPSDIAVEWESNGQPENNYKTTPPVLDSDGSFFLYSKLTVDKSRWQQGNVFSCSVMHEALHNHYTQKSLSLSP light: not shown | 2.7 µM | 27 µM | 0.09 µM | 0.006 | 0.8 | 0.012 | 0.04 | 0.004
IL6R-P746/IL6R-L (antibody, human IgG1, kappa) heavy: QVQLQESGPGLVKPSETLSLTCAVSGHSISHDHAWSWVRQPPGEGLEWIGFISYSGITNYNPSLQGRVTISRDNSKNTLYLQMNSLRAEDTAVYYCARSLARTTAMDYWGEGTLVTVSSASTKGPSVFPLAPSSKSTSGGTAALGCLVKDYFPEPVTVSWNSGALTSGVHTFPAVLQSSGLYSLSSVVTVPSSSLGTQTYICNVNHKPSNTKVDKKVEPKSCDKTHTCPPCPAPELFGQDSVMLFPPKPKDTLMISRTPEVTCVVVDVSHEDPEVKFNWYVDGVEVHNAKTKPREEQENSTYRVVSVLTVLHQDWLNGKEYKCAVSNKALPAPIEKTISKAKGQPREPQVYTLPPSRDELTKNQVSLTCLVKGFYPSDIAVEWESNGQPENNYKTTPPVLDSDGSFFLYSKLTVDKSRWQQGNVFSCSVMHEALHNHYTQKSLSLSP light: not shown | 3 µM | 18 µM | 0.0074 µM | 0.005 | 0.7 | 0.01 | 0.06 | 0.043
IL6R-P744/IL6R-L (antibody, human IgG1, kappa) heavy: QVQLQESGPGLVKPSETLSLTCAVSGHSISHDHAWSWVRQPPGEGLEWIGFISYSGITNYNPSLQGRVTISRDNSKNTLYLQMNSLRAEDTAVYYCARSLARTTAMDYWGEGTLVTVSSASTKGPSVFPLAPSSKSTSGGTAALGCLVKDYFPEPVTVSWNSGALTSGVHTFPAVLQSSGLYSLSSVVTVPSSSLGTQTYICNVNHKPSNTKVDKKVEPKSCDKTHTCPPCPAPELLGGDSVFLFPPKPKDTLMISRTPEVTCVVVDVSHEDPEVKFNWYVDGVEVHNAKTKPREEQYNATYRVVSVLTVLHQDWLNGKEYKCAVSNKALPAPIEKTISKAKGQPREPQVYTLPPSRDELTKNQVSLTCLVKGFYPSDIAVEWESNGQPENNYKTTPPVLDSDGSFFLYSKLTVDKSRWQQGNVFSCSVMHEALHNHYTQKSLSLSP light: not shown | 3.2 µM | 18 µM | 0.01 µM | 0.007 | 0.7 | 0.013 | 0.06 | 0.032
IL6R-P745/IL6R-L (antibody, human IgG1, kappa) heavy: QVQLQESGPGLVKPSETLSLTCAVSGHSISHDHAWSWVRQPPGEGLEWIGFISYSGITNYNPSLQGRVTISRDNSKNTLYLQMNSLRAEDTAVYYCARSLARTTAMDYWGEGTLVTVSSASTKGPSVFPLAPSSKSTSGGTAALGCLVKDYFPEPVTVSWNSGALTSGVHTFPAVLQSSGLYSLSSVVTVPSSSLGTQTYICNVNHKPSNTKVDKKVEPKSCDKTHTCPPCPAPELLGGDSVFLFPPKPKDTLMISRTPEVTCVVVDVSHEDPEVKFNWYVDGVEVHNAKTKPREEQYNATYRVVSVLTVLHQDWLNGKEYKCEVSNKALPAPIEKTISKAKGQPREPQVYTLPPSRDELTKNQVSLTCLVKGFYPSDIAVEWESNGQPENNYKTTPPVLDSDGSFFLYSKLTVDKSRWQQGNVFSCSVMHEALHNHYTQKSLSLSP light: not shown | 3.1 µM | 26 µM | 0.005 µM | 0.007 | 0.7 | 0.014 | 0.04 | 0.064

The next lines start with the values.

Kd [1] | Kd [2] | Kd [3] | Relative FcgRIIIaV-binding Activity [4] | Relative FcgRIIb-binding Activity [5] | Relative FcgRIIaH-binding Activity [6] | Relative FcgRIIaR-binding Activity [7] | Relative FcgRIa-binding Activity [8] | Binder
6.2 µM | 39 µM | 0.1 µM | 0.005 | 0.3 | 0.01 | 0.03 | 0.003 | IL6R-P748/IL6R-L (antibody, human IgG1, kappa) heavy: QVQLQESGPGLVKPSETLSLTCAVSGHSISHDHAWSWVRQPPGEGLEWIGFISYSGITNYNPSLQGRVTISRDNSKNTLYLQMNSLRAEDTAVYYCARSLARTTAMDYWGEGTLVTVSSASTKGPSVFPLAPSSKSTSGGTAALGCLVKDYFPEPVTVSWNSGALTSGVHTFPAVLQSSGLYSLSSVVTVPSSSLGTQTYICNVNHKPSNTKVDKKVEPKSCDKTHTCPPCPAPELLGQDSVMLFPPKPKDTLMISRTPEVTCVVVDVSPEDPEVKFNWYVDGVEVHNAKTKPREEQENSTYRVVSVLTVLHQDWLNGKEYKCAVSNKALPHPIEKTISKAKGQPREPQVYTLPPSRDELTKNQVSLTCLVKGFYPSDIAVEWESNGQPENNYKTTPPVLDSDGSFFLYSKLTVDKSRWQQGNVFSCSVMHEALHNHYTQKSLSLSP light: not shown
4 µM | 49 µM | 0.23 µM | 0.006 | 0.5 | 0.013 | 0.02 | 0.001 | IL6R-P750/IL6R-L (antibody, human IgG1, kappa) heavy: QVQLQESGPGLVKPSETLSLTCAVSGHSISHDHAWSWVRQPPGEGLEWIGFISYSGITNYNPSLQGRVTISRDNSKNTLYLQMNSLRAEDTAVYYCARSLARTTAMDYWGEGTLVTVSSASTKGPSVFPLAPSSKSTSGGTAALGCLVKDYFPEPVTVSWNSGALTSGVHTFPAVLQSSGLYSLSSVVTVPSSSLGTQTYICNVNHKPSNTKVDKKVEPKSCDKTHTCPPCPAPELFGQDSVMLFPPKPKDTLMISRTPEVTCVVVDVSPEDPEVKFNWYVDGVEVHNAKTKPREEQENSTYRVVSVLTVLHQDWLNGKEYKCAVSNKALPAPIEKTISKAKGQPREPQVYTLPPSRDELTKNQVSLTCLVKGFYPSDIAVEWESNGQPENNYKTTPPVLDSDGSFFLYSKLTVDKSRWQQGNVFSCSVMHEALHNHYTQKSLSLSP light: not shown
4 µM | 22 µM | 0.052 µM | 0.004 | 0.5 | 0.009 | 0.05 | 0.006 | IL6R-P749/IL6R-L (antibody, human IgG1, kappa) heavy: QVQLQESGPGLVKPSETLSLTCAVSGHSISHDHAWSWVRQPPGEGLEWIGFISYSGITNYNPSLQGRVTISRDNSKNTLYLQMNSLRAEDTAVYYCARSLARTTAMDYWGEGTLVTVSSASTKGPSVFPLAPSSKSTSGGTAALGCLVKDYFPEPVTVSWNSGALTSGVHTFPAVLQSSGLYSLSSVVTVPSSSLGTQTYICNVNHKPSNTKVDKKVEPKSCDKTHTCPPCPAPELLGQDSVMLFPPKPKDTLMISRTPEVTCVVVDVSPEDPEVKFNWYVDGVEVHNAKTKPREEQENSTYRVVSVLTVLHQDWLNGKEYKCEVSNKALPHPIEKTISKAKGQPREPQVYTLPPSRDELTKNQVSLTCLVKGFYPSDIAVEWESNGQPENNYKTTPPVLDSDGSFFLYSKLTVDKSRWQQGNVFSCSVMHEALHNHYTQKSLSLSP light: not shown
